According to patent publication US20150037339A1 (Regeneron, published 2015):
Numbering of substitutions follows the chain as printed. Blank lines part the entries; values can stand above or below the binder they belong to.

What was measured:
[1] = biological target: T1, Activin AC (human, UniProt P55103 237-352); experiment: SPR (Biacore), mAb captured on anti-Fc, Activin AC injected, 37 C
T1 construct: Heterodimer of one betaA and one betaC subunit; bought (R&D Systems #4879-AC)
T1 sequence 1: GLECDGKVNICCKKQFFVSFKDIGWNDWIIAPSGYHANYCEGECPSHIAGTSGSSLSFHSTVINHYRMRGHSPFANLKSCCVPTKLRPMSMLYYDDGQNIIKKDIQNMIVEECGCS
T1 sequence 2: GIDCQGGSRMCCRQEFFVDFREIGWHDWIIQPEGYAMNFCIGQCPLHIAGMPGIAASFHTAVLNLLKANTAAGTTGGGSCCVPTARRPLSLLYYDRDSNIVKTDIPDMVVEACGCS
Method: (§1) Antibody-antigen association was monitored for 240 seconds while dissociation in buffer was monitored for 600 seconds. Kinetic association and dissociation rate constants were determined by processing and fitting the data using Scrubber software version 2.0c. Binding equilibrium dissociation constants (KD) and dissociative half-lives (t_{1/2}) were then calculated from the kinetic rate constants as: KD (M)=kd/kₐ and t_{1/2} (min)=[ln 2/(60*kd)]. (NB=no binding observed under the conditions used; NT=not tested).

[2] = biological target: T2, Activin AB (human, UniProt P08476 311-426; P09529 293-407); experiment: SPR (Biacore), mAb captured on anti-Fc, Activin AB injected, 37 C
T2 construct: Heterodimer of one betaA and one betaB subunit; bought (R&D Systems #1006-AB-005 / #1066-AB)
T2 chain 1: T1 sequence 1
T2 chain 2: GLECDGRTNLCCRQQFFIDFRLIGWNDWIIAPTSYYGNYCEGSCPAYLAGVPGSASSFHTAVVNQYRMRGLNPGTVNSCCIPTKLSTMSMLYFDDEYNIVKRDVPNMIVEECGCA
Method: as §1

[3] = biological target: T2, Activin AB; experiment: SPR (Biacore), mAb captured on anti-Fc, Activin AB injected, 25 C
Method: as §1

[4] = biological target: T1, Activin AC; experiment: SPR (Biacore), mAb captured on anti-Fc, Activin AC injected, 25 C
Method: as §1

[5] = biological target: T1, Activin AC; experiment: cell-based or functional assay
[6] = biological target: T3, Activin A (human, UniProt P08476 311-426); experiment: cell-based or functional assay
T3 sequence: T1 sequence 1

[7] = biological target: T2, Activin AB; experiment: cell-based or functional assay
[8] = biological target: T4, Activin A (human, UniProt P08476 311-426); experiment: SPR, captured mAb, 25C
T4 construct: Homodimer of two βA subunits; bought from R&D Systems (#338-AC); also called inhibin-βA dimer; human Activin A
T4 sequence: T1 sequence 1
Method: as §1

[9] = biological target: T4, Activin A; experiment: SPR, captured mAb, 37C
Method: as §1

[10] = biological target: T4, Activin A; experiment: SPR, captured mAb, 37C; no dissociation observed, kd fixed
Method: as §1

[11] = biological target: T4, Activin A; experiment: SPR, captured mAb, 25C; no dissociation observed, kd fixed
Method: as §1

B2: H4H10445P2 (antibody, human IgG4, V domains shown)
VH: QVQLQESGPGLVKPSETLSLICSVSGGSFSSHFWSWIRQPPGKGLEWIGYVLYSGGTNYNPSLKSRVTISVDTSKNQFFLKLSSVTAADTADYYCARAISGITFGGIIVPGSFDIWGQGTMVTVSS
VL: not shown
Activin A-20 nM (RU) [8]: 43 RU
Kd [8]: ≤ 0.0208 nM
kon [8]: 2.4e+06 M⁻¹ s⁻¹
t1/2 [8]: ≥ 231 min
Activin A-20 nM (RU) [9]: 36 RU
Kd [9]: ≤ 0.0115 nM
kon [9]: 4.33e+06 M⁻¹ s⁻¹
t1/2 [9]: ≥ 231 min
koff [10]: ≤ 5e-05 s⁻¹
koff [11]: ≤ 5e-05 s⁻¹

B4: H4H10447P2 (antibody, human IgG4, V domains shown)
VH: B2 VH with I21T, V51I, L52H, F79S, S83T, I107M, I115V, Q118E
VL: not shown
Activin A-20 nM (RU) [8]: 43 RU
Kd [8]: ≤ 0.0212 nM
kon [8]: 2.36e+06 M⁻¹ s⁻¹
t1/2 [8]: ≥ 231 min
Activin A-20 nM (RU) [9]: 36 RU
Kd [9]: ≤ 0.0107 nM
kon [9]: 4.69e+06 M⁻¹ s⁻¹
t1/2 [9]: ≥ 231 min
koff [10]: ≤ 5e-05 s⁻¹
koff [11]: ≤ 5e-05 s⁻¹

B6: H4H10432P2 (antibody, human IgG4, V domains shown)
VH: EVQLVESGGGLVQPGRSLTLSCAVSGFTFDDHAMHWVRQAPGKGLEWVSGISWNSVSIGYADSVKGRFTISRDNAKTSLYLQMNSLRVDDTALYYCVQDLNDILTGYPLFDFWGQGTLVTVSS
VL: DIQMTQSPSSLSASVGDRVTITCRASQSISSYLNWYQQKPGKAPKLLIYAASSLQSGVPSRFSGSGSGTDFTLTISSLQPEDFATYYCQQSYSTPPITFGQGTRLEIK
50 nM Ag Bound (RU) [1]: 34.6 RU
Kd [1]: 12.5 nM
koff [1]: 0.00902 s⁻¹
kon [1]: 722000 M⁻¹ s⁻¹
t1/2 [1]: 1.3 min
50 nM Ag Bound (RU) [2]: 44.4 RU
Kd [2]: 1.1 nM
koff [2]: 0.00592 s⁻¹
kon [2]: 5.4e+06 M⁻¹ s⁻¹
t1/2 [2]: 2 min
50 nM Ag Bound (RU) [3]: 38.3 RU
Kd [3]: 0.568 nM
koff [3]: 0.00227 s⁻¹
kon [3]: 4e+06 M⁻¹ s⁻¹
t1/2 [3]: 5.1 min
50 nM Ag Bound (RU) [4]: 34.9 RU
Kd [4]: 2.98 nM
koff [4]: 0.00187 s⁻¹
kon [4]: 629000 M⁻¹ s⁻¹
t1/2 [4]: 6.2 min
IC50 [M], inhibition of 4 nM Activin AC in A204/CAGAx12-Luc Smad2/3-luciferase bioassay [5]: 2.8e-09 M
IC50 [M], inhibition of 100 pM Activin A in A204/CAGAx12-Luc Smad2/3-luciferase bioassay [6]: 1.1e-10 M
IC50 [M], inhibition of 30 pM Activin AB in A204/CAGAx12-Luc Smad2/3-luciferase bioassay [7]: 8e-10 M

Further lines, results first:

50 nM Ag Bound (RU) [1]: 10.7 RU
Kd [1]: 17.3 nM
koff [1]: 0.0124 s⁻¹
kon [1]: 719000 M⁻¹ s⁻¹
t1/2 [1]: 0.9 min
50 nM Ag Bound (RU) [2]: 34.5 RU
Kd [2]: 0.88 nM
koff [2]: 0.00443 s⁻¹
kon [2]: 5.03e+06 M⁻¹ s⁻¹
t1/2 [2]: 2.6 min
50 nM Ag Bound (RU) [3]: 34.7 RU
Kd [3]: 0.556 nM
koff [3]: 0.00209 s⁻¹
kon [3]: 3.76e+06 M⁻¹ s⁻¹
t1/2 [3]: 5.5 min
50 nM Ag Bound (RU) [4]: 17.2 RU
Kd [4]: 7.41 nM
koff [4]: 0.00592 s⁻¹
kon [4]: 798000 M⁻¹ s⁻¹
t1/2 [4]: 2 min
IC50 [M], inhibition of 4 nM Activin AC in A204/CAGAx12-Luc Smad2/3-luciferase bioassay [5]: 3.4e-09 M
IC50 [M], inhibition of 100 pM Activin A in A204/CAGAx12-Luc Smad2/3-luciferase bioassay [6]: 3.9e-11 M
IC50 [M], inhibition of 30 pM Activin AB in A204/CAGAx12-Luc Smad2/3-luciferase bioassay [7]: 2.3e-09 M
B1: H4H10468P2 (antibody, human IgG4, V domains shown)
VH: QVQLQESGPGLVKPSETLSLTCTVSGGSFSSHFWSWIRQPPGKGLEWIGYIYYSGGTHYNPSLESRVTISVDTSKNQFSLKLNSVTAADTAVYYCARARSGITFGGLIVPGSFDIWGQGTMVTVSS
VL: not shown

Activin A-20 nM (RU) [8]: 64 RU
Kd [8]: ≤ 0.0105 nM
kon [8]: 4.76e+06 M⁻¹ s⁻¹
t1/2 [8]: ≥ 231 min
Activin A-20 nM (RU) [9]: 49 RU
Kd [9]: ≤ 0.00636 nM
kon [9]: 7.86e+06 M⁻¹ s⁻¹
t1/2 [9]: ≥ 231 min
koff [10]: ≤ 5e-05 s⁻¹
koff [11]: ≤ 5e-05 s⁻¹
B3: H4H10448P2 (antibody, human IgG4, V domains shown)
VH: B1 VH with S28T, Y52F, S54T, H58N, Y59H, E64K, V71I, N83T, L107V
VL: not shown

Activin A-20 nM (RU) [8]: 55 RU
Kd [8]: ≤ 0.0107 nM
kon [8]: 4.69e+06 M⁻¹ s⁻¹
t1/2 [8]: ≥ 231 min
Activin A-20 nM (RU) [9]: 43 RU
Kd [9]: ≤ 0.0063 nM
kon [9]: 7.94e+06 M⁻¹ s⁻¹
t1/2 [9]: ≥ 231 min
koff [10]: ≤ 5e-05 s⁻¹
koff [11]: ≤ 5e-05 s⁻¹
B5: H4H10452P2 (antibody, human IgG4, V domains shown)
VH: QVQLQESGPGLVKPSETLSLTCTVSGGSFSSHFWNWIRQSPGRGLEWIGYIYYSGGTNYNPSFKSRVTMSVDTSKNQFSLKLSSVTAADTAVFYCARARSGITFGGVLVPGSFDIWGQGTMVTVSS
VL: not shown
